Test results from paper PMC10347550 (2023).

target: integrin αIIbβ3 (Homo sapiens, UniProt P08514); test: tryptophan fluorescence quenching (Stern-Volmer)

Row | Binder | Kd
1 | Ac-MRGDH-NH2 (also: Met and His coordinated to Δ-Ru(Ph2phen)2, Cl2 salt) [Δ-[Ru(Ph2phen)2(Ac-MRGDH-NH2)]Cl2 (Δ-[1]Cl2)] | 83 nM
2 | Ac-MRGDH-NH2 (also: Met and His coordinated to Λ-Ru(Ph2phen)2, Cl2 salt) [Λ-[Ru(Ph2phen)2(Ac-MRGDH-NH2)]Cl2 (Λ-[1]Cl2)] | 61 nM
3 | Ac-MRADH-NH2 (also: Met and His coordinated to Δ-Ru(Ph2phen)2, dichloride salt) [Δ-[Ru(Ph2phen)2(Ac-MRADH-NH2)]Cl2 (Δ-[3]Cl2)] | 112 nM
